Molecular target: T1, HIV-1 Nef-SF2, untagged (HIV-1 (SF2), UniProt P03407)
T1 construct: also called Nef (B-clade allele SF2); source: E. coli, purified without N-terminal His tag (anion exchange HiPrep Q FF, gel filtration Superdex 75)
Experiment: SPR
Conditions: both partners purified

T1 sequence (P03407 whole entry): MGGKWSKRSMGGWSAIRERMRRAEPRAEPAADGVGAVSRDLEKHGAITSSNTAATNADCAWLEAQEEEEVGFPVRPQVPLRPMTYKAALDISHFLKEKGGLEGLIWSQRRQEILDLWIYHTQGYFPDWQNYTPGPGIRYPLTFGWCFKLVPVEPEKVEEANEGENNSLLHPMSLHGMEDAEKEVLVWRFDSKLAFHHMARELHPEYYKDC

Binder | Kd [µM] | koff [s⁻¹] | kon [M⁻¹ s⁻¹]
wild-type human Hck SH3 domain (domain or fragment, also called hHck SH3; source: E. coli BL21(DE3)pLysS, purified (anion exchange, IMAC, size-exclusion chromatography)) not shown | 0.07 ± 0.01 | 0.0118 ± 0.04 | 160000 ± 0.06
wild-type mouse Hck SH3 domain (domain or fragment, UniProt P08103 76-136, looked up, also called mHck SH3; mSH3; source: E. coli BL21(DE3)pLysS, purified (anion exchange, IMAC, size-exclusion chromatography)) SEDTIVVALYDYEAIHREDLSFQKGDQMVVLEEAGEWWKARSLATKKEGYIPSNYVARVNS | 0.13 ± 0.03 | 0.07 ± 0.36 | 554000 ± 1.77

Reference: PMC3328272, “HIV-1 Nef interaction influences the ATP-binding site of the Src-family kinase, Hck” (BMC Chemical Biology, 2012)
